The nature of the series: label from the status in PepcDB records.

From a protein production outcome set (Wang et al. 2014) come the findings set out here.
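Further: failed if final PepcDB status was selected cloned or expressed and not failed if soluble or beyond.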

For “MAKFIMVVGTSSNSGKTVLVSGICRMLSNKGYKVAPFKSQNMSLNSRVSVEDGEIAVAQYTQAMAARAEPSVHFNPILLKPKGNFVSQVIVHGNPYEDKDYNEYRSKKDDFLVKIKESIDYLDKNYDYVVIEGAGSCCEINLLNDDIANLKVAEIAGADAILVSDIDRGGVFASIYGTVQLLPENWKKLLKGFVINKFRGNIDVLKDGFEKIEELTNIPVIGTIPYDETLVLPEEDSQALDGKRVFGNLKSPIEVNVVKFSKIANFTDVDPFSSDCLMKYIDFNENITGDILILPGTRCSTVEMDLMKKYGMDKKILEFVENGGIVLGICGGYQALGKMLFDEDFSEGDVGTISGLGLFDMETTFGNKKAIKNSTGKISIFNQNFDVSGYELHEGYSVSNETPLISLSKGFGNCGDSYDGSFKMIGDSYIFGTYFHGILENFEFRNYLVNLARSKKNLSKIEDDTYAELFNENMDKLSKIIEENLDFSKIIG”, the protein production result is recorded as “failed”.

With “MAKGSAKKSFLDLFKITDSNDDDFDDDMFDDEDEMEDEYDDPYDEAYDSEEEYDDGSDAASDRAKASPLKSFNKYKNSRTPSGNVSKTKTAKSSQNSKLVSINSRSDRDSYDDSEVFVIKPDEFDDAQMIIDHLNRGQIIVINMEDLDLPTAQRIADFIGGASYAVNGLFQAISGNIFLATPNGTYVSGDLREELAGGSLGGEDLSKATY”, the protein production result is reported as “failed”.

For the sequence “MAKIFVVGGSGRVASELIKNLINDGNQVFASSRHPEKIIKLDNVVPVKLDLHSDVSAWSEVFKGMDVIYFVAGSRGKDLLQTDAMGAVKTMQAAENVGVKRYIMLSSLYALQPEKWSQYESLAALTDYNIAKFFADNYLVNDTKLDYTVVQPASLTEETGTGRVSFNEIISNTNPIPDVAKVLAEVIKHNNTIGKVIMMCSGDNPIETALKDI”, the protein production result was “failed”.

On to “MAKIKVMSIFGTRPEAIKMAPLVLALEKEPETFESTVVITAQHREMLDQVLEIFDIKPDIDLDIMKKGQTLAEITSRVMNGINEVIAAENPDIVLVHGDTTTSFAAGLATFYQQKMLGHVEAGLRTWNKYSPFPEEMNRQLTGVMADIHFSPTKQAKENLLAEGKDPATIFVTGNTAIDALKTTVQKDYHHPILENLGDNRLILMTAHRRENLGEPMQGMFEAVREIVESREDTELVYPMHLNPAVREKAMAILGGHERIHLIEPLDAIDFHNFLRKSYLVFTDSGGVQEEAPGMGVPVLVLRDTTERPEGIEAGTLKLIGTNKENLIKEALDLLDNKESHDKMAQAANPYGDGFAANRILAAIKSHFEETDRPEDFIV”, for which the protein production result was “not failed”.

With “MAKKKNVSVISVEKPTWFPLTDETGAFPVYGAPITIGTAVSIKPDVTTETTPDYGDSVVQDQYVAFGGAEVTLETNGYQNEVLAEITGGKKLKGGVLRSADDIASDGAFAYRRRKSNGKYRYTIFYKGKFALTSDETSTLEGSSVSYTHPEWTGSFVDVPGLGYMYSVDEDDEGVDLEMIKNWFTEVMDPRKENTTAVTGVTLDQTELNLKVGQTATLTPTITPDNASNKKYQFRSESEAIGTVTPIQGKVTAVGEGTTEIVVTTEDGNFTAKCTLNVTTADLEHHHHHH”, the protein production result is given as “failed”.

For “MAKKNKRSQQKNKCLKPEKDPSTVKRLLEDPPRKKRYLQPLENPPTESYGDDEKMETEEEGEKYLGKNLPASAFIIVAAERHDSDSYSETELEKKICGSVVVAKMNDDKMVSTDTKKKYFQRILSDDDKIVLLQGMVDFQNDKGTISYDDMTGFIDTVKNIISFQANSRQFTTKIRRLKDKFVQKRNKGVDENSLANVEIYEI”, the protein production result is recorded as “failed”.

Regarding “MAKKTSSKWYSTSAFSRLEKLGLRHPKPSPFIGNLTFFRQGFWESQMELRKLYGPLCGYYLGRRMFIVISEPDMIKQVLVENFSNFTNRMASGLEFKSVADSVLFLRDKRWEEVRGALMSAFSPEKLNEMVPLISQACDLLLAHLKRYAESGDAFDIQRCYCNYTTDVVASVAFGTPVDSWQAPEDPFVKHCKRFFENVELLGTPWLQVYNNFPALLDARILPNKNRDELNGFFNKLIRNVIALRDQQAAEERRRDFLQMVLDARHSASPMGVQDFDIVRDVFSSTGCKPNPSRQHQPSPMARPLTVDEIVGQAFIFLIAGYEIITNTLSFATYLLATNPDCQEKLLREVDVFKEKHMAPEFCSLEEGLPYLDMVIAETLRMYPPAFRFTREAAQDCEVLGQRIPAGAVLEMAVGALHHDPEHWPSPETFNPERFTAEARQQHRPFTYLPFGAGPRSCLGVRLGLLEVKLTLLHVLHKFRFQACPETQVPLQLESKSALGPKNGVYIKIVSRHHHH”, the protein production result was “failed”.

Regarding “MAKLVSIIVSVYNKEQFLEKCIESLIDLKMDKNNIEAIFVDDCSTDESVNIIKHYEKDYDFIKLIQLPENTGSPSEPRNIGMREAQGKYITLLDADDWLDKEGFPQVIEKVNKDDADLGFGQSFKHKSKNVKYHARFTSYKEASHLKPQDISKIFRAVGPPGKVFKRSLVMDHHIEFEHMKYGEDKLFFFQLFGKVDDITMSTIPMYHVNRYDENKSLVQQTSMLDKANSNLEVLDRTCHMDMSSELKHMALARMVEVDFISRFLRTKTFIKSADKEKFYAVIEKVERKIKEQGIDINTLITNPVFKQIYTLYHHADESVFVNFTKDVVNDQWRYIIQDGIVFRDFVHQYDMIKPTVVDCYPVYEGTQMMGENKYEVIRVMKPDDINIQSVSLVEINNAANEYEVTYKYSDDRIYVPHEEFEKLNKDININFNVNYGESGRSLVYASYPSFNDVFKMKRQNFKVEFVHKKNENKAQQVTNRKSEYFKRITNPMMTLKKIKIYKDVSFKEEVGSLEAGTRVEASDIQYTSKGTPRLVLDDGSIITANKDFITLINTSGLNKYITEVPKKVKVVKACKLYDSRDFKDNTVRKLKKGDVLTIRDIIYTNNSTPRLVTQEGLFLTANKDFIKIIK”, the protein production result is listed as “failed”.

Take “MAKNYYDITLALAGICQSARLVQQLAHQGHCDADALHVSLNSIIDMNPSSTLAVFGGSEANLRVGLETLLGVLNASSRQGLNAELTRYTLSLMVLERKLSSAKGALDTLGNRINGLQRQLEHFDLQSETLMSAMAAIYVDVISPLGPRIQVTGSPAVLQSPQVQAKVRATLLAGIRAAVLWHQVGGGRLQLMFSRNRLTTQAKQILAHLTPEL”: the protein production entry is on record as “not failed”.

In the case of “MAKQIIVTDSTSDLSHEYLKQHNIHVIPLSLTIDGKSYTDQVDISSSEYIDHIENDADVKTSQPPIGRFIETYEQLAQDDVEIISIHLSSGLSGTYNTAVQASHMVDGNITVIDSKSISFGLGYQIKQIVELISQGTSTEEIVKEMTQLRDNLQLFVVIGQLNQLIKGGRISKTKGLIGNIMKIKPIGTLRDGKLELVHNSRTQNSSVQYLKKEITDFVKDHKIKSIGIAHANVKDFVDKIIKSFTESFDFSQFDINVTTPVISTHTGQGAIGLVVLRDTLN”, the protein production result is given as “failed”.

Consider “MAKRKKKEVFDWEDEDQEEIIWVSKSEIKRDAEDLKQLGEKIVNLTKANLAKIPLDESLLDAIELAQRLQKEARRRQLQYIGKLFRGIDVEPIREALDKIENKHNQQQAMLHKIEKVRDELVEKGDVALTDLLNDYPNGDRQQLRNLIRSAQKELEQNKPSKAYREIYQMLKVLMLED”, for which the protein production entry is listed as “failed”.

Consider “MAKRVFIGATGQNCGKTTMSVSLMHLARQKYDRVGFIKPIGPKIEGYNGLTVDMDAILMARTFGLEEDLPLMNPVSLHKNFTRDFLSGKLDCNVLKTKILEAFEILDKKYDFLIIEGAGHGGVGSVIGLSNACVAHTLNAPVIIVTDSGIGSSIDAVHLNLALYEKEDADVRMLLVNKLRADKRESILSFLGKGFPGRPLKISGGFNYSPILANPTLSHIGKLLNLPVHGDPDGQSRIIHHIHLGAASAQRVVDALQESTLIVITSSRDELIVTLSSLYHIPAFREKIVGLVIAGHIPASEISQQILDDSNIPYIRVHDSTANVFTTLMEDVAKITAEDQEKLNWIRANAENEIDFEAIDALLLEHHHHHH”, for which the protein production result is recorded as “failed”.

With “MAKSGSLSIRVVEGRALPAKDVSGSSDPYCLVKVDDEVVARTATIWRSLSPFWGEEYTVHLPLDFHHLAFYVLDEDTVGHDDIIGKISLSKEAITADPRGIDSWINLSRVDPDEEVQGEVCLAVKLLEDARGRCLRCHVRQARDLAPRDISGTSDPFARVFWGSRSLETSTIKKTRFPHWDEVLELREAPGTTSPLRVELWDWDMVGKNDFLGMVEFTPQTLQQKPPNGWFRLLPFPRAEDSGGSLGALRLKVRLTEDRVLPSQYYQPLMELLLESVQGPAEEDTTSPLALLEELASGDCRQDLATKLVKLFLGRGLAGPFLDYLTRREVARTNDPNTLFRSNSLASKSMEQFMKLVGMRYLHEVLRPVISRVFEEKKYMELDPSKMDLNRSRRISFKGTPTEEQVRETSLGLLTGYLGSVVDAIVSSAGRCPLALRLAFKQLQQCVEKRFPGMEHQVGWVLRGLMRIRLKAPCVQCSRCIDXRNRIWGHRRCLPHGELGLLSPLLQAVQSIGNLGQQLGQGKEQWLAPLHPFLLQSISRVRDFLDQLVDVDGDEEAGFPLTKLMECRGVTKEGRVGXGRWSTSXFPAFRRERQERPGGLCCSERSAAWSWRLRLTGRDIAGLTGQWHAVPGRPQVHSSIPLSCIRAVERVDEGAFQLPHVMQVVTQDGTGASHTTYLQCKNVNDLNQWLSALRKASAPNPGKLAACHPGAFRSGRWTCCLQAERSAALSFHLGVLCNLEHVTXFLCASVFSSGKWSSPLDPKAGGAALYLRNQFCLSLSTLRLKLLEDSSLDTAPDVDPGKDSSAVDGPCAEVLAQQREATTRLLQVLEDLEQAHEEFQKRG”, the protein production entry is on record as “failed”.

Regarding “MAKSVNALINEAIEAGKKRDYKTSILILENLAAEGLAEVSSPFYGEKKGNPEIYLYLSRAWAAVNNYGRSIAYGKAYIKRCSSDPSANSTDLPMGFFFLGRSYLAAGQYDRAVYCLEKSLKLNPHPLETRAMLGSAYLKWKKPRLARETFEEALKFAPSDAKLNAGYLNSLFVEGIYELRNGNADMARQMFSFAIKNGIDGVAPRLYLAHALKMEGYLPEALGQYEAACEFEPDDPALKWYPAMIKMQLGDTTAAAEDFAKLGIEIPDDGVSDRFFAMGVIKKHMERGDYSRAAVAARIFIKTFGSDAEIRLLAAEAQRSMGNTNTALGHYKCALEHEPENPYPHYGIMLALQEAYRWEELSAEILRAEASGVCDADDIYYYKIITAAHIDNPPEEVLPHLQALIQNGRSDSAIFNAMGCCYIKLNMPDLALNWYERALSINEKDEEAKIGIIASYENLQLNKEADEAYNSYLNEWGKNIYIRRDYVLFLEKCERWEDAGNQLEILMSQGKKVNFDPELALFRRKAGQYQKAAILYRKMLRAKPEERLLLHNLVFCLDKMGQTKVSLDLLKAAEKMFGIKTDSMLIKGILQMRLKKKEDAIKTFQYILEKEPKNKHAAEFLEKAYGK”, the protein production result is given as “failed”.

Consider “MAKTLNSICFTTLLLVLLFISAEIPTAEANCDTYLGEVTVYYPCRERDCEAQCYEHYPHSCKGECEHHDHVVHHDNEEEHCHCYGR”, for which the protein production result is given as “failed”.

On to “MAKVCYFTGRKTVSGNNRSHAMNKTKRVVKPNLQKVTVLIDGKPKKVWASARALKSGKVERVLEHHHHHH”, for which the protein production entry was “failed”.

As to “MAKYFDIDDILIEEEFVPVLFHKTANGVTIDPSAETNCVSLLIPSAKAEQGSKVELPFWLAHELHLRQAVTINLPPCFDQKTRLEVQADAAYVDLRSRCPYFYEFGCKIEPLVTDRTLGILLSTAFKIRYKEALTKVYTAAHITASKYLSFLTKEETNLYEAAHLSMTAFKKWRTGGPRFQRASILGRKRKDSN”, the protein production entry is given as “failed”.

As to “MAKYKVGMVSLGCDKNRVDSEIMLGMVQNEYELTNNPKEADIIIVNTCGFIEKAKQESINTILDMAKYKTSHNCKLLIATGCLTQRYGDELLELMPEIDIMLGVNDYAKINEAIMNFINGNNEKVKATNYSDVSINEGLRLITTDKATAYLRIAEGCDNFCTYCIIPKIRGKFRSRALESIVEEAKKLAENGVKELILIAQDTTNYGIDIYGEKKLHLVLRELAKIEGIEWIRVLYCYPEAIYDELIKEISVNDKVCNYLDLPIQHISNNVLKRMGRKTTKEEIIGKINDLRKNVPNIVLRTSLIVGFPGESCEDFNELKDFIKTIKLDKVGVFTYSREEGTPAAIMEDQIDEEVKKAREEEIMLLQKEVSEEINKNKVGREYDVLIEKFNGEYYIGRSYEMAPDIDGCIYVKGNGAKKDQFCKVKIEKALEYDLVGVVCNESCKLEHHHHHH”, the protein production entry was “failed”.
